From US20130130288A1 (published 2013)
Changes are numbered by the printed parent chain. Numbers in names are those of the source.

Experiments:
[1] = target: T1, amyloid β-derived diffusible ligands (ADDLs), oligomers of Aβ1-42; test: one-sided ELISA, plate coated with 50 pmol/well Aβ oligomers, chemiluminescence
T1 construct: number of copies not defined; also called Aβ oligomers; Aβ oligomer

Aβ1-40 monomer [2] = target: T2, Aβ1-40 monomer; test: ELISA on coated antigen, chemiluminescence; antibody stored 1 month at 40°
T2 construct: also called Aβ40 monomer; monomer Aβ

[3] = target: T1, amyloid β-derived diffusible ligands …; test: ERENNA sandwich immunoassay, 19.3 capture, labelled 82E1 detection
[4] = target: T1, amyloid β-derived diffusible ligands …; test: three-pronged Aβ ELISA (M90/1 polyclonal capture); ratio of binding to ADDLs over monomeric Aβ
[5] = target: T1, amyloid β-derived diffusible ligands …; test: three-pronged Aβ ELISA (M90/1 polyclonal capture); ratio of binding to ADDLs over fibrillar Aβ
[6] = target: T1, amyloid β-derived diffusible ligands …; test: KINEXA; constant for Aβ1-40 over constant for ADDLs
Aβ1-40 monomer [7] = target: T2, Aβ1-40 monomer; test: one-sided ELISA, plate coated with 100 pmol/well Aβ1-40, chemiluminescence
[8] = target: T1, amyloid β-derived diffusible ligands …; test: sandwich ELISA, 19.3 capture and 82E1 detection, luminescence (ENVISION)
[9] = target: T1, amyloid β-derived diffusible ligands …; test: competitive ELISA, ratio of the two competition EC50 values
[10] = target: T1, amyloid β-derived diffusible ligands …; test: ELISA, IgG2 antibodies
Aβ1-40 monomer [11] = target: T2, Aβ1-40 monomer; test: ELISA on coated antigen, chemiluminescence; antibody at 0 timepoint
[12] = target: T1, amyloid β-derived diffusible ligands …; test: one-sided ELISA on coated Aβ oligomers or Aβ1-40
Aβ1-40 monomer [13] = target: T2, Aβ1-40 monomer; test: KINEXA, equilibrium constant in solution
[14] = target: T1, amyloid β-derived diffusible ligands …; test: KINEXA, equilibrium constant in solution
Aβ1-40 monomer [15] = target: T2, Aβ1-40 monomer; test: BIACORE (SPR)
[16] = target: T1, amyloid β-derived diffusible ligands …; test: BIACORE (SPR)
[17] = target: T1, amyloid β-derived diffusible ligands …; test: BIACORE (SPR); affinity for Aβ1-40 over affinity for ADDLs
Aβ1-40 monomer [18] = target: T2, Aβ1-40 monomer; test: ELISA on coated antigen, chemiluminescence; antibody stored 1 month at 4°
Aβ1-40 monomer [19] = target: T2, Aβ1-40 monomer; test: ELISA on coated antigen, chemiluminescence; antibody stored 1 month at 25°
[20] = target: T1, amyloid β-derived diffusible ligands …; test: … bead-based immunoassay; signal at 0.2 pM ADDLs greater than at 1000 pM Aβ1-40
[21] = target: T1, amyloid β-derived diffusible ligands …; test: competitive ELISA

B1: anti-ADDL antibody 19.3 (antibody, V domains shown)
VH: EVQLVESGGGLVQPGGSLRLSCAASGFTFSSFGMHWVRQAPGKGLEWVAYISRGSSTIYYADTVKGRFTISRDNAKNSLYLQMNSLRAEDTAVYYCARGITTALDYWGQGTLVTVSS
VL: DVVMTQSPLSLPVTPGEPASISCRSSQSIVHSNGNTYLEWYLQKPGQSPQLLIYKASNRFSGVPDRFSGSGSGTDFTLKISRVEAEDVGVYYCFQGSRLGPSFGQGTKLEIKR
EC50 [1]: ~1.6 nM | EC50 (Aβ1-40 monomer [2]): 88.8 nM | fold selectivity of the assay for Aβ oligomers over Aβ 40 monomer [3]: 5000 fold | ADDL:Monomer [4]: 2.5 ratio | ADDL:Fibrillar [5]: 2 ratio | Ratio (Aβ monomer/ADDL) [6]: ~6.2 ratio | EC50 (Aβ1-40 monomer [7]): ~4.3 nM | fold selectivity for Aβ oligomer signal as compared to Aβ40 monomers [8]: ~1000 fold | affinity for Aβ1-42 oligomers compared to Aβ1-40 monomers [9]: ~630 ratio | EC50 [10]: 0.8 nM | EC50 (Aβ1-40 monomer [11]): 10.1 nM | fold greater potency for Aβ oligomers as compared to Aβ40 monomer [12]: ~3.7 fold | Kd (Aβ1-40 monomer [13]): 16.7 nM | Kd [14]: 2.7 nM | Kd (Aβ1-40 monomer [15]): 150 nM | Kd [16]: 4.8 nM | Ratio (Aβ monomer/ADDL) [17]: ~31 ratio | EC50 (Aβ1-40 monomer [18]): 16.3 nM | EC50 (Aβ1-40 monomer [19]): 22.1 nM | ADDL versus monomeric Aβ selectivity [20]: ~5000 fold | fold higher concentration of Aβ1-40 needed to displace 50% of 19.3 from Aβ oligomers than of Aβ oligomers to displace 19.3 from Aβ1-40 [21]: ~600 fold

B2: anti-ADDL antibody 13.1 (antibody, V domains shown)
VH: B1 VH
VL: B1 VL with R98K, L99A, G100H
ADDL:Monomer [4]: 2.4 ratio | ADDL:Fibrillar [5]: 2 ratio

B3: anti-ADDL antibody 14.2 (antibody, V domains shown)
VH: B1 VH
VL: B1 VL with L99V, G100P, S102G
ADDL:Monomer [4]: 4.2 ratio

B4: 19.3 N33S (antibody, V domains shown)
VH: B1 VH
VL: DVVMTQSPLSLPVTPGEPASISCRSSQSIVHSSGNTYLEWYLQKPGQSPQLLIYKASNRFSGVPDRFSGSGSGTDFTLKISRVEAEDVGVYYCFQGSRLGPSFGQGTKLEIL
EC50 (Aβ1-40 monomer [2]): 29.9 nM | EC50 (Aβ1-40 monomer [11]): 55.1 nM | EC50 (Aβ1-40 monomer [18]): 59.1 nM | EC50 (Aβ1-40 monomer [19]): 24.3 nM

B5: anti-ADDL antibody 11.4 (antibody, V domains shown)
VH: B1 VH
VL: B1 VL with L99V, G100P, P101V, S102R
ADDL:Monomer [4]: 2.4 ratio | ADDL:Fibrillar [5]: 2.4 ratio

B6: 19.3 N33T (antibody, V domains shown)
VH: B1 VH
VL: B4 VL with S33T
EC50 (Aβ1-40 monomer [2]): 96.3 nM | EC50 (Aβ1-40 monomer [11]): 332 nM | EC50 (Aβ1-40 monomer [18]): 307 nM

B7: anti-ADDL antibody 17.1 (antibody, V domains shown)
VH: B1 VH
VL: B1 VL with L99V, G100P, P101A
ADDL:Monomer [4]: 3.2 ratio | ADDL:Fibrillar [5]: 2.1 ratio
